Experimental data reported in PMC6377630, “NapM enhances the survival of Mycobacterium tuberculosis under stress and in macrophages” (Communications Biology, 2019).

Assays:
[1] = system: NapM (Mycobacterium tuberculosis H37Ra); assay: EMSA; settings: pH and temperature not stated
[2] = system: DnaA (Mycobacterium tuberculosis H37Ra); assay: EMSA; settings: pH and temperature not stated

oriC fragment
Kd [1]: 0.458 µM | Kd [2]: 0.0605 µM
